Results as given in the supplement of paper PMC10201428.
± gives the standard deviation of the averaged measurements.

B1: library; a variant is named by its letters at N, in order (parent)
chain: AATGTTGTTGATGCAACCATAAAGTGATATTTAATAATTATTTATAATCAGCAACTTAACCACAAAACAACCATATATTGATATNTCACAAAACAACCATAANTTGATATTTTTGTGAATCGAGTATTTCAGCAAAACTACTGCAGTAAGAA

How the values were obtained:
[1] = variants of: B1; experiment: relative integration efficiency (T-LR orientation) vs wild-type transposon end (log2 (normalized fold change)); transposon end mutated: left end; higher = more efficient transposition; details: with VchCAST RNA-guided transposition machinery (E. coli BL21(DE3) host, lacZ target)
How it was run: (§1)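 Barcode abundances in input plasmids and in genomic integration junctions were obtained by PCR amplification and Illumina sequencing. These came from E. coli BL21(DE3) co-transformed with a T7-driven effector plasmid and a pUC57 donor carrying 1549 left-end or 1849 right-end transposon variants, then plated with 0.1 mM IPTG at 37°C for 18 h. Relative integration efficiency is the output/input fold change, normalised to reference barcodes and log-transformed.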

[2] = variants of: B1; experiment: relative integration efficiency (T-RL orientation) vs wild-type transposon end (log2 (normalized fold change)); transposon end mutated: left end; higher = more efficient transposition; details: with VchCAST RNA-guided transposition machinery (E. coli BL21(DE3) host, lacZ target)
How it was run: as §1

CG A59T C60G C61G A62T
relative integration efficiency (log2) [1]: 0.314 ± 0.15
relative integration efficiency (log2) [2]: 0.00645 ± 0.092

CG C72G
relative integration efficiency (log2) [1]: -0.262 ± 0.52
relative integration efficiency (log2) [2]: -0.201 ± 0.43

TA A16C G24T T30A A70C T76A T84A C87A A96C T110A T113A
relative integration efficiency (log2) [1]: -0.489 ± 0.47
relative integration efficiency (log2) [2]: -0.00649 ± 0.34

CG C49A A50C
relative integration efficiency (log2) [1]: -0.934 ± 0.45
relative integration efficiency (log2) [2]: -0.598 ± 0.47

TA A23G G24T A33T T76A T78G C87A T104G T113A
relative integration efficiency (log2) [1]: 0.453 ± 0.52
relative integration efficiency (log2) [2]: -0.0355 ± 0.21

AG T84G T86G C87A
relative integration efficiency (log2) [1]: 0.381 ± 0.25
relative integration efficiency (log2) [2]: 0.0958 ± 0.22

CG G24A T30A
relative integration efficiency (log2) [1]: 0.342 ± 0.15
relative integration efficiency (log2) [2]: 0.261 ± 0.027

CG T20A
relative integration efficiency (log2) [1]: -0.647 ± 0.083
relative integration efficiency (log2) [2]: -0.343 ± 0.17

CG T20C
relative integration efficiency (log2) [1]: -1.08 ± 0.45
relative integration efficiency (log2) [2]: -1.07 ± 0.49

CG T20G
relative integration efficiency (log2) [1]: -0.668 ± 0.64
relative integration efficiency (log2) [2]: -0.834 ± 0.6

CG T113A T114A
relative integration efficiency (log2) [1]: -0.122 ± 0.087
relative integration efficiency (log2) [2]: -0.426 ± 0.25

CG A123C G124T T125G
relative integration efficiency (log2) [1]: -0.277 ± 0.038
relative integration efficiency (log2) [2]: -0.171 ± 0.067

CG T57A A58T A59T C60G
relative integration efficiency (log2) [1]: 1.28 ± 0.42
relative integration efficiency (log2) [2]: 0.281 ± 1

CG T42G T43G A44C T45G
relative integration efficiency (log2) [1]: 0.391 ± 0.16
relative integration efficiency (log2) [2]: -0.108 ± 0.12

CG A81T T82A A83T T84A
relative integration efficiency (log2) [1]: -0.679 ± 1.2
relative integration efficiency (log2) [2]: -0.753 ± 0.74

CG A16C
relative integration efficiency (log2) [1]: -0.374 ± 0.29
relative integration efficiency (log2) [2]: -0.26 ± 0.13

TA G24A T30A T76A T78A T84A C87A A102T T111C T113C
relative integration efficiency (log2) [1]: -0.493 ± 1.1
relative integration efficiency (log2) [2]: -0.0919 ± 0.22

CG C63A A64C
relative integration efficiency (log2) [1]: 0.557 ± 0.37
relative integration efficiency (log2) [2]: -0.135 ± 0.079

CG A36C A37C
relative integration efficiency (log2) [1]: 0.196 ± 0.61
relative integration efficiency (log2) [2]: 0.127 ± 0.018

CG A29T A83T A109T
relative integration efficiency (log2) [1]: -0.979 ± 0.74
relative integration efficiency (log2) [2]: -0.428 ± 0.23

CG A50T G51C
relative integration efficiency (log2) [1]: -1.59 ± 0.97
relative integration efficiency (log2) [2]: -0.729 ± 0.46

CG T32A A33T T86A C87G T112A T113A
relative integration efficiency (log2) [1]: -0.463 ± 0.11
relative integration efficiency (log2) [2]: -0.48 ± 0.21

CG A47T
relative integration efficiency (log2) [1]: 0.0475 ± 0.098
relative integration efficiency (log2) [2]: 0.0568 ± 0.074

CG A27T T28A
relative integration efficiency (log2) [1]: -0.61 ± 0.9
relative integration efficiency (log2) [2]: -0.441 ± 0.66

CG A69C A70C
relative integration efficiency (log2) [1]: -0.684 ± 0.62
relative integration efficiency (log2) [2]: -0.537 ± 0.29

CG T100A
relative integration efficiency (log2) [1]: 0.42 ± 1
relative integration efficiency (log2) [2]: 0.66 ± 0.49

CG T100C
relative integration efficiency (log2) [1]: -2.04 ± 0.83
relative integration efficiency (log2) [2]: -1.27 ± 0.52

CG T43A A44T
relative integration efficiency (log2) [1]: 0.162 ± 0.35
relative integration efficiency (log2) [2]: -0.0354 ± 0.012

TG A23G G24T A33T A70C T76A T86G
relative integration efficiency (log2) [1]: -0.0695 ± 0.1
relative integration efficiency (log2) [2]: -0.149 ± 0.11

CA G24A T30A T104G T113A
relative integration efficiency (log2) [1]: -0.317 ± 0.27
relative integration efficiency (log2) [2]: -0.387 ± 0.13

CG C61G A62T C63G A64T
relative integration efficiency (log2) [1]: 0.0811 ± 0.61
relative integration efficiency (log2) [2]: -0.0813 ± 0.26

CG A21T A22T A23T G24C
relative integration efficiency (log2) [1]: -0.979 ± 0.79
relative integration efficiency (log2) [2]: -0.775 ± 0.46

CA A16C G24T T30A A96C T112G T113C
relative integration efficiency (log2) [1]: -0.699 ± 0.71
relative integration efficiency (log2) [2]: -0.628 ± 0.18

CG A54T C55G T56A T57A
relative integration efficiency (log2) [1]: -0.43 ± 0.9
relative integration efficiency (log2) [2]: -0.861 ± 0.54

CG A69C A70C C71A C72A
relative integration efficiency (log2) [1]: -1.64 ± 0.34
relative integration efficiency (log2) [2]: -1.88 ± 0.72

CG A88C
relative integration efficiency (log2) [1]: -0.0509 ± 0.39
relative integration efficiency (log2) [2]: -0.148 ± 0.082

CG A107T T108A
relative integration efficiency (log2) [1]: -0.991 ± 0.38
relative integration efficiency (log2) [2]: -0.981 ± 0.55

CG T114A G115C
relative integration efficiency (log2) [1]: -0.272 ± 0.35
relative integration efficiency (log2) [2]: -0.342 ± 0.024

CG T42G T43G
relative integration efficiency (log2) [1]: 0.178 ± 0.27
relative integration efficiency (log2) [2]: -0.123 ± 0.14

CG C63T
relative integration efficiency (log2) [1]: 0.266 ± 0.018
relative integration efficiency (log2) [2]: 0.0804 ± 0.061

CG T43G A44C
relative integration efficiency (log2) [1]: 0.129 ± 0.046
relative integration efficiency (log2) [2]: -0.0854 ± 0.05

CG T57A A58T
relative integration efficiency (log2) [1]: -3.38 ± 2.1
relative integration efficiency (log2) [2]: -0.792 ± 0.44

CG C89G
relative integration efficiency (log2) [1]: 0.0739 ± 0.015
relative integration efficiency (log2) [2]: -0.315 ± 0.029

CG C55T
relative integration efficiency (log2) [1]: 0.102 ± 0.26
relative integration efficiency (log2) [2]: -0.123 ± 0.13

CG T112C
relative integration efficiency (log2) [1]: -0.138 ± 0.38
relative integration efficiency (log2) [2]: -0.258 ± 0.13

CG G106C A107T
relative integration efficiency (log2) [1]: -1.92 ± 1.4
relative integration efficiency (log2) [2]: -1.78 ± 0.63

CG T112G T113G T114G G115T
relative integration efficiency (log2) [1]: -0.51 ± 0.098
relative integration efficiency (log2) [2]: -0.359 ± 0.072

CG A34C T35C A36G T38C A40G T42C A44G T45C A46C A62G A65G A66C
relative integration efficiency (log2) [1]: -1.11 ± 0.2
relative integration efficiency (log2) [2]: -1.33 ± 0.56

CG A1C A2G T3C G4C T5G
relative integration efficiency (log2) [1]: -0.385 ± 0.32
relative integration efficiency (log2) [2]: -0.219 ± 0.027

CG A46T A47T T48A C49G
relative integration efficiency (log2) [1]: 0.192 ± 0.37
relative integration efficiency (log2) [2]: 0.00752 ± 0.28

CG A67T C68G
relative integration efficiency (log2) [1]: -0.364 ± 0.41
relative integration efficiency (log2) [2]: -0.543 ± 0.47

CG G117T
relative integration efficiency (log2) [1]: -0.0744 ± 0.017
relative integration efficiency (log2) [2]: -0.0764 ± 0.036

CG G117C
relative integration efficiency (log2) [1]: -0.761 ± 0.33
relative integration efficiency (log2) [2]: -0.41 ± 0.12

CG C121A G122T A123C G124T T125G
relative integration efficiency (log2) [1]: 0.905 ± 0.042
relative integration efficiency (log2) [2]: 0.666 ± 0.12

CC A22T A23T G24C T76A A77T T78A A102T T104A
relative integration efficiency (log2) [1]: -0.143 ± 0.92
relative integration efficiency (log2) [2]: -0.196 ± 0.36

CG T41A T42A
relative integration efficiency (log2) [1]: 0.775 ± 0.0053
relative integration efficiency (log2) [2]: 0.864 ± 0.047

CG T57G A58C A59C C60A
relative integration efficiency (log2) [1]: -1.48 ± 0.099
relative integration efficiency (log2) [2]: -0.817 ± 0.47

CG A29C T30G T31G T32G
relative integration efficiency (log2) [1]: -0.555 ± 0.56
relative integration efficiency (log2) [2]: -0.723 ± 0.61
